Biological target: type IV collagen
Experiment: cell-based or functional assay

| Substance | median NOD (numbers of disruption), saphenous vein bleeding model in hemophilia B mice 7 days after injection |
| --- | --- |
| wild type Factor IX (human FIX) (from UniProt P00740 47-461) (enzyme) | 14 disruptions |
| Factor IX K5R variant (from UniProt P00740 47-461) (enzyme) | 19 disruptions |
| Factor IX K5A variant (from UniProt P00740 47-461) (enzyme) | 8 disruptions |

Source: US20150307863A1
